Experimental data: patent US20210046160A1 (Synthorx, Inc., priority 2019, published 2021)

How the values were obtained:
Type in all cases: cell-based
[1] = tested on: CTLL-2; experiment: CTLL-2 proliferation; conditions: Table 4
[2] = tested on: NK cells; experiment: pSTAT5 concentration-response in human LRS-derived PBMC samples (flow cytometry): NK cells; conditions: Table 4, 45 min
Procedure: (§1) These studies were performed at PrimityBio LLC (Fremont, Calif.). […] Staining panel for flow cytometry study of LRS-derived PBMC samples include markers for Effector T cells (Teff: CD3+, CD4+, CD8+, CD127+), NK cells (CD3-, CD16+), and Regulatory T cells (Treg: CD3+, CD4+, CD8-, IL-2Rα+, CD127-1).
(§2) The EC50 values (pg/mL) was calculated from dose response curves generated from MFI plots. […]

[3] = tested on: Treg cells; experiment: pSTAT5 concentration-response in human LRS-derived PBMC samples (flow cytometry): Treg cells; conditions: Table 4; for EC50 for pSTAT5 signaling, Treg Cells: human LRS samples, 45 min; for CD8/Treg ratio: ratio of pSTAT5 EC50 values
Procedure: as §1
The EC50 values (pg/mL) was calculated from dose response curves generated from MFI plots.
These studies were performed at PrimityBio LLC (Fremont, Calif.). […] Staining panel for flow cytometry study of LRS-derived PBMC samples include markers CD4, CD4+ memory central, CD4+ memory effect, CD4+ memory T cells, CD4+ Naive T cells, CD4+ T cells, CD8, CD8+ memory central, CD8+ memory effect, CD8+ memory T cells, CD8+ Naive T cells, CD8+ T cells, NK cells, and T regulatory cells.
Conjugates of Table 12 were synthesized by modification of SEQ NO. 1. These studies were performed at PrimityBio LLC (Fremont, Calif.).
The EC50 values (pg/ml) were calculated from dose response curves generated from the MFI plots.

[4] = tested on: CD8+ T cells; experiment: pSTAT5 concentration-response in human LRS-derived PBMC samples (flow cytometry): CD8+ T cells; conditions: Table 4, 45 min
Procedure: as §1, §2

[5] = tested on: Human whole blood; experiment: Whole blood cytokine release assay (MSD U-plex: IFN-γ, IL-4, IL-5, IL-6, IL-8, TNF-α); design: unit not given here; conditions: for IFN-γ level, D1 / IL-6 level, D1 / IL-8 level, D1 / TNF-α level, D1 / IFN-γ level, D2 / IL-6 level, D2 / IL-8 level, D2 / TNF-α level, D2 / IFN-γ level, D3 / IL-6 level, D3 / IL-8 level, D3 / TNF-α level, D3 / IFN-γ level, D4 / IL-6 level, D4 / IL-8 level, D4 / TNF-α level, D4 / IFN-γ level, D5 / IL-6 level, D5 / IL-8 level, D5 / TNF-α level, D5 / IFN-γ level, D6 / IL-6 level, D6 / IL-8 level, D6 / TNF-α level, D6: 24 h, control conditions, conc. ug/ml: IgG4 iso 50, mouse IgG1,κ 100, PEM 90, NIVO 127, coated anti-CD3 100; for IL-4 level / IL-5 level: 90 ug/ml
Procedure: Cytokines released from the whole blood after treatment into the supernatant were measured using the Meso Scale Discovery (MSD) U-plex kit for six analytes (IFN-γ, IL-4, IL-5, IL-6, IL-8, TNF-α).
Blood in heparin tubes from 6 healthy donors were obtained from The Scripps Research Institute (TSRI; San Diego, Calif.) blood donor service. Samples were tested on the day of the collection; donors 1-3 on one day and donors 4-6 on another day.
A volume of 180 μL of prediluted whole blood was seeded onto a 96-well tissue culture plate. Then, 20 μL of 10× final test concentration of compounds was added to the assay plate. […] In addition, positive and negative controls were included to show the detection and specification of the assay: 100 μg/mL pre-coated Ultra LEAF mouse anti-human CD3 were used as the positive controls for the assay. […] […] No treatment also served as a negative control for the assay.
After adding the compound(s) to the well, the blood was incubated at 37° C. After centrifugation of the samples, supernatant was collected 24 h post treatment and stored at −80° C. before analysis. The human cytokines ([…], TNF-α, IL-8, IL-6, IL-5, IL-4) released from the assay were quantified with the MSD U-plex kit. The detection limit of each plate is reported from the MSD software, Discovery workbench. Each plate has a slightly different detection limit.

[6] = tested on: CD4+ T cells co-cultured with allogeneic monoDC; experiment: Allogeneic human mixed lymphocyte reaction (MLR) assay, IFN-γ secretion; conditions: single agents, 5 days of co-culture
Text: The allogeneic human mixed lymphocyte reaction (MLR) assay was used to evaluate the ability of Compound B (IL-2_P65[AzK_L1_PEG30kD]-1) to enhance TCR activation as a single agent and in combination with a checkpoint inhibitor (nivolumab or pembrolizumab), as a model for cytolytic response to tumor cells presenting specific antigens or neoantigens.
Peripheral blood mononuclear cells (PBMCs) from two normal, healthy donors were used for each assay run. MonoDCs were generated by culturing monocytes isolated from PBMCs using a negative monocyte selection kit (Stemcell) in vitro for 7 days, involving addition of 1,500 IU/mL of IL-4 and 1,500 IU/mL of GM-CSF. The culture medium was replaced on Days 3 and 5. MonoDCs were collected on Day 7. On that day, CD4+ T cells were isolated from a different donor with a negative selection kit (Stemcell). […] Each run was set up in 3 replicates for each treatment condition. After 5 days of co-culture, IFN-γ secretion in culture supernatants was analyzed employing an enzyme-linked immunosorbent assay (ELISA) kit (Abcam; catalog #Ab46025). Clinical grade nivolumab was used to generate the data shown in FIG. 13, and research grade nivolumab (Selleckchem) was used to generate the data shown in FIG. 14. […] Data shown in FIGS. 12, 13, and 14 represent the mean of 3 replicates standard error of the mean from one donor pair.

Q: Which “EC50, CTLL-2 proliferation” value [1] does the source give for “F42_30 kD: IL-2 (SEQ ID NO: 4) PEGylated with 30 kD PEG via AzK at F42; presumably SEQ ID NO: 27” here?
A: The value was 123,936 pg/mL.

Q: What about the “EC50 for pSTAT5 signaling, NK Cells” value [2] of the same substance?
A: The value was 16397 pg/mL.

Q: What about the “EC50 for pSTAT5 signaling, Treg Cells” value [3] of the same substance?
A: The value was 36856 pg/mL.

Q: And the CD8/Treg ratio [3]?
A: The CD8/Treg ratio was 2.9.

Q: What about the “EC50 for pSTAT5 signaling, CD8+ T Cells” value [4] of the same substance?
A: The value was 107944 pg/mL.

Q: How did the “EC50 for pSTAT5 signaling, NK Cells” value [2] turn out when “K43_30 kD: IL-2 (SEQ ID NO: 4) PEGylated with 30 kD PEG via AzK at K43; presumably SEQ ID NO: 28” was run?
A: Its value is 9004 pg/mL.

Q: What about the “EC50 for pSTAT5 signaling, Treg Cells” value [3] of the same substance?
A: The value was 4797 pg/mL.

Q: What about the CD8/Treg ratio [3] of the same substance?
A: The CD8/Treg ratio was 10.5.

Q: What about the “EC50 for pSTAT5 signaling, CD8+ T Cells” value [4] of the same substance?
A: The value was 50504 pg/mL.

Q: How did the “IFN-γ level, D1” value ([5]; donor D1) turn out when nivolumab [reference compound] was run?
A: The value was 29.77.

Q: What about the “IL-6 level, D1” value ([5]; donor D1) of the same substance?
A: The value was 1.28.

Q: And the “IL-8 level, D1” value ([5]; donor D1)?
A: The value was 20.59.

Q: What about the “TNF-α level, D1” value ([5]; donor D1) of the same substance?
A: Its value is 2.35.

Q: What about the “IFN-γ level, D2” value ([5]; donor D2) of the same substance?
A: The value was 9.34.

Q: What about the “IL-6 level, D2” value ([5]; donor D2) of the same substance?
A: Its value is 0.48.

Q: And the “IL-8 level, D2” value ([5]; donor D2)?
A: Its value is 7.68.

Q: What about the “TNF-α level, D2” value ([5]; donor D2) of the same substance?
A: The value was 0.44.

Q: What about the “IFN-γ level, D3” value ([5]; donor D3) of the same substance?
A: Its value is 6.61.

Q: And the “IL-6 level, D3” value ([5]; donor D3)?
A: The value was 1.09.

Q: And the “IL-8 level, D3” value ([5]; donor D3)?
A: Its value is 7.95.

Q: What about the “TNF-α level, D3” value ([5]; donor D3) of the same substance?
A: The value was 1.33.

Q: What about the “IFN-γ level, D4” value ([5]; donor D4) of the same substance?
A: The value was 7.56.

Q: And the “IL-6 level, D4” value ([5]; donor D4)?
A: The value was 0.59.

Q: What about the “IL-8 level, D4” value ([5]; donor D4) of the same substance?
A: Its value is 22.61.

Q: And the “TNF-α level, D4” value ([5]; donor D4)?
A: Its value is 1.21.

Q: What about the “IFN-γ level, D5” value ([5]; donor D5) of the same substance?
A: Its value is 256.75.

Q: What about the “IL-6 level, D5” value ([5]; donor D5) of the same substance?
A: The value was 3.29.

Q: What about the “IL-8 level, D5” value ([5]; donor D5) of the same substance?
A: The value was 67.38.

Q: What about the “TNF-α level, D5” value ([5]; donor D5) of the same substance?
A: The value was 4.89.

Q: What about the “IFN-γ level, D6” value ([5]; donor D6) of the same substance?
A: The value was 9.51.

Q: And the “IL-6 level, D6” value ([5]; donor D6)?
A: The value was 0.62.

Q: What about the “IL-8 level, D6” value ([5]; donor D6) of the same substance?
A: Its value is 19.68.

Q: And the “TNF-α level, D6” value ([5]; donor D6)?
A: Its value is “BDL”.

Q: What about the “release of IFN-γ” value [6] of the same substance?
A: Its value is “induced the release of IFN-γ in a concentration-dependent manner”.

Q: Which results are given for pembrolizumab [reference compound]?
A: IL-4 level ([5]; donor D1): 0.10; IL-5 level ([5]; donor D1): 1.03; IFN-γ level, D1 ([5]; donor D1): 52.78; IL-6 level, D1 ([5]; donor D1): 1.09; IL-8 level, D1 ([5]; donor D1): 22.01; TNF-α level, D1 ([5]; donor D1): 2.33; IL-4 level ([5]; donor D2): 0.03; IL-5 level ([5]; donor D2): 0.72; IFN-γ level, D2 ([5]; donor D2): 9.62; IL-6 level, D2 ([5]; donor D2): 0.39; IL-8 level, D2 ([5]; donor D2): 8.48; TNF-α level, D2 ([5]; donor D2): 0.68; IL-4 level ([5]; donor D3): 0.03; IL-5 level ([5]; donor D3): 0.79; IFN-γ level, D3 ([5]; donor D3): 8.80; IL-6 level, D3 ([5]; donor D3): 0.92; IL-8 level, D3 ([5]; donor D3): 11.36; TNF-α level, D3 ([5]; donor D3): 1.67; IL-4 level ([5]; donor D4): 0.09; IL-5 level ([5]; donor D4): BDL; IFN-γ level, D4 ([5]; donor D4): 11.71; IL-6 level, D4 ([5]; donor D4): 0.65; IL-8 level, D4 ([5]; donor D4): 23.29; TNF-α level, D4 ([5]; donor D4): 0.97; IL-4 level ([5]; donor D5): BDL; IL-5 level ([5]; donor D5): BDL; IFN-γ level, D5 ([5]; donor D5): 301.71; IL-6 level, D5 ([5]; donor D5): 8.95; IL-8 level, D5 ([5]; donor D5): 95.5; TNF-α level, D5 ([5]; donor D5): 5.88; IL-4 level ([5]; donor D6): BDL; IL-5 level ([5]; donor D6): BDL; IFN-γ level, D6 ([5]; donor D6): 10.08; IL-6 level, D6 ([5]; donor D6): 1.06; IL-8 level, D6 ([5]; donor D6): 28.32; TNF-α level, D6 ([5]; donor D6): 1.43; release of IFN-γ [6]: induced the release of IFN-γ in a concentration-dependent manner
